The target of series [1] is T1, OLD (OAS-like domain of OASL) wild type (Homo sapiens, UniProt Q15646 1-350).
T1 sequence: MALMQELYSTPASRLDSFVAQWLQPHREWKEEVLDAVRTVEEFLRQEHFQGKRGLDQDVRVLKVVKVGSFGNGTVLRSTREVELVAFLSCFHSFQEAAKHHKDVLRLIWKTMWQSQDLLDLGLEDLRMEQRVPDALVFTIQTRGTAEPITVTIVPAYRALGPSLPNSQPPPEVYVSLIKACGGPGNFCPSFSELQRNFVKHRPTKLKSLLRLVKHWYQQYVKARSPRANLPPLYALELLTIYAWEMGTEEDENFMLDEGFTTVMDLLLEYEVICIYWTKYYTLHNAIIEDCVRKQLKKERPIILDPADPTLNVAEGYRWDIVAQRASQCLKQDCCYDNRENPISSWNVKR
In words: EMSA; OLD 2.4 uM, dsRNA 0-8.6 uM, protein stained; 1.5 mM Mg2+; 100 mM DL-malic acid pH 5.9, 200 (unit not given) Na2SO4, 300 mM NaCl, 1.5 mM MgCl2, 2 mM BME, 5% glycerol; 37 C 15 min; native PAGE in 0.5x TBE. Conditions: protein: recombinant; tags: C-terminal 6xHis; blunt.

Series [2] concerns the molecule itself. In words: SEC; analytical, Superdex 200 PC3.2/30; OASL run in 50 mM Tris-HCl pH 9, 500 mM NaCl, 10% glycerol, 1.5 mM MgCl2, 1 M urea, 1 mM BME; calibrated with Blue Dextran and albumin. On the technique in general: Size exclusion chromatography separates by hydrodynamic size, large species first.

B1: 18 bp dsRNA (dsRNA)
RNA 1: GGCUUUUGACCUUUAUGC
RNA 2: GCAUAAAGGUCAAAAGCC
On to B1, for which the binding result in series [1] is “binds”.

B2: full-length OASL (human 2'-5' oligoadenylate synthetase-like protein), recombinant from insect cells (natural protein, UniProt Q15646 1-514, looked up)
chain: MALMQELYSTPASRLDSFVAQWLQPHREWKEEVLDAVRTVEEFLRQEHFQGKRGLDQDVRVLKVVKVGSFGNGTVLRSTREVELVAFLSCFHSFQEAAKHHKDVLRLIWKTMWQSQDLLDLGLEDLRMEQRVPDALVFTIQTRGTAEPITVTIVPAYRALGPSLPNSQPPPEVYVSLIKACGGPGNFCPSFSELQRNFVKHRPTKLKSLLRLVKHWYQQYVKARSPRANLPPLYALELLTIYAWEMGTEEDENFMLDEGFTTVMDLLLEYEVICIYWTKYYTLHNAIIEDCVRKQLKKERPIILDPADPTLNVAEGYRWDIVAQRASQCLKQDCCYDNRENPISSWNVKRARDIHLTVEQRGYPDFNLIVNPYEPIRKVKEKIRRTRGYSGLQRLSFQVPGSERQLLSSRCSLAKYGIFSHTHIYLLETIPSEIQVFVKNPDGGSYAYAINPNSFILGLKQQIEDQQGLPKKQQQLEFQGQVLQDWLGLGIYGIQDSDTLILSKKKGEALFPAS
notes: human OASL, full length (printed as 61 kDa); OAS-like domain (residues 1-350) followed by two ubiquitin-like domains; also called OAS-like protein
Regarding B2, in series [2], the binding result is “binds”.

(Values after publication PMC4446440, “Structural and functional analysis reveals that human OASL binds dsRNA to enhance RIG-I signaling” (Nucleic Acids Research, 2015).)
